Entries after “also recorded” stand apart in the source; their conditions may differ.
Legend:
[1] = Western blot of TCA-precipitated media for intact ROBO1-Ig5; format: physicochemical; conditions: after 6 days in media, absence and presence of heparin (300 ng/ml)
From the text: Three recombinant ROBO1 ECD constructs were constructed: one comprising two immunoglobulin (Ig) domains (ROBO1-Ig2), another comprising all five Ig domains (ROBO1-Ig5), and another comprising the entire extracellular domain (ROBO1-Ecto) (FIG. 6A). In other constructs, HA (hemagglutinin), Myc, and human and mouse immunoglobulin Fc were fused to the Robo1 ECDs (FIG. 6A, 5F right). Extracellular domains of Deleted in Colorectal Cancer (DCC), a structurally similar Ig superfamily member to ROBO1, comprising either two Ig (DCC-Ig2) or four Ig (DCC-Ig4) domains and tagged with HA were constructed for use as negative controls (FIG. 6A, 5F right). Expression secretion of the constructs was confirmed by overexpressing the constructs in HEK293 cells and performing Western blots on cell lysates and media (FIG. 6B). […] Robo1-Ig5 as used herein was expressed in HEK-293 cells in the absence and presence of heparin (300 ng/ml). Media were collected from these ROBO1-Ig5 overexpressing cells on days two, four and six following plasmid transfection. Dot blot dilution assays of the collected media were performed to evaluate the relative secretion of this soluble ROBO1 ECD (FIG. 6C).
Add 1 volume of TCA stock to 4 volumes of protein sample. Incubate 10 min at 4° C. Spin tube in microcentrifuge at 14K rpm, 5 min. Remove supernatant, leaving protein pellet intact Wash pellet with 200 μl cold acetone. […]

[2] = test system: NOTCH4; test: Cell fractionation and Western blot for HES1 and NOTCH4-ICD in HC11 cells; format: cell-based, mouse; conditions: HC11 cells treated during differentiation
Protocol: Notch receptor activation can be regulated through direct interactions with binding partners^24. […] To address this possibility, co-immunoprecipitation experiments were performed using MBA-MD-231 cells lysates, which express detectable levels of all four Notch receptors (NOTCH1-4). Endogenous ROBO1 co-immunoprecipitated with NOTCH4, but not […], NOTCH2 or NOTCH3 (FIG. 3H and data not shown). Next, the expression and subcellular localization of the NOTCH4 intracellular domain (N4-ICD) and HES1 was examined in control (Scr) and Robo1 (siR1) knockdown HC11 cells. Expression of Robo1 was inhibited in HC11 cells that were then primed for differentiation as described above. […] This effect was not observed in control Robo1 knockdown cells engineered to overexpress Robo1 (siR1+o/e) or cells treated with the γ-secretase inhibitor GSI (siR1+GSI) (FIGS. 3I-3K).
To examine the effects of ROBO1-ECD fragments on Notch signaling, HC11 cells were treated with ROBO1-ECD fragments and Notch effector expression assessed. […] In addition, HC11 cells were treated with ROBO-Ig5 during differentiation. These cells were then fractionated and a Western blot performed to detect HES1 and NOTCH4-ICD (FIG. 8B).
Protein lysates were prepared by directly lysing adherent cells in 1× sample buffer supplemented with 5% beta-mercaptoethanol and boiled for 5 minutes. Protein lysate was resolved by SDS-PAGE and transferred to a PVDF for 90 minutes at 400 mA or overnight at 30 mA. Primary antibodies were used at the concentration indicated in Table 1 and incubated overnight at 4° C. HRP conjugated secondary antibodies (Jackson Labs) were used at 1:3000 and incubated for 45 minutes at room temp. All proteins were detected using Clarity ECL (BioRad) using a BioRad Chemi-Doc MP Imager and quantified using ImageLab software as previously described a.

[3] = test system: HC11 cells; test: HC11 dome assay (milk dome formation on differentiation in DIP media); format: cell-based, mouse

B1: ROBO1-Ig5: recombinant soluble ROBO1 ECD construct comprising all five Ig domains (protein)
chain: SRLRQEDFPPRIVEHPSDLIVSKGEPATLNCKAEGRPTPTIEWYKGGERVETDKDDPRSHRMLLPSGSLFFLRIVHGRKSRPDEGVYICVARNYLGEAVSHNASLEVAILRDDFRQNPSDVMVAVGEPAVMECQPPRGHPEPTISWKKDGSPLDDKDERITIRGGKLMITYTRKSDAGKYVCVGTNMVGERESEVAELTVLERPSFVKRPSNLAVTVDDSAEFKCEARGDPVPTVRWRKDDGELPKSRYEIRDDHTLKIRKVTAGDMGSYTCVAENMVGKAEASATLTVQEPPHFVVKPRDQVVALGRTVTFQCEATGNPQPAIFWRREGSQNLLFSYQPPQSSSRFSVSQTGDLTVTNVQRSDVGYYICQTLNVAGSIITKAYLEVTDVIADRPPPVIRQGPVNQTVAVDGTLTLSCVATGSPVPTILWRKDGVLVSTQDSRIKQLESGVLQIRYAKLGDTGRYTCTASTPSGEATWSAYIEVQEF
integrity of ROBO1-Ig5 protein in media [1]: intact; also recorded: no protein degradation
NOTCH4-ICD in the cytoplasmic fraction [2]: lower; also recorded: reduced
HES1 protein in the nuclear fraction ([2]; relative to control treatment): lower levels; also recorded: decreased
NOTCH4-ICD (N4-ICD) protein in the nuclear fraction ([2]; relative to control treatment): lower levels; also recorded: decreased
dome formation in control cells (Scr) ([3]; HC11 Scramble KD (Scr) cells, ROBO1-ECD treatment): increased dome formation
dome formation in response to a titration of ECD fragments ([3]; HC11 cells, increasing ECD concentration): higher rates of dome formation
dome formation with ECD fragments generated in the presence of heparin ([3]; HC11 cells, vs same fragments generated in the absence of heparin (300 ng/ml)): fewer domes; also recorded: diminished
dome formation in Notch4 knockdown cells (shNotch4) ([3]; HC11 shNotch4 cells, ROBO1-Ig5 treatment): same level of dome formation as untreated Notch4 knockdown cells; also recorded: unaffected
dome formation in cells in which Robo1 expression was inhibited (shRobo1) ([3]; HC11 shRobo1 cells, ROBO1-Ig5 treatment): same level as that of control cells (Scr) treated with ROBO1-ECD fragments; also recorded: rescued

— patent publication US12139531B2, “Compositions and methods useful in promoting milk production” (The Regents of the University of California, priority 2019, dated 2024)
